In US20210009693A1 (MABSPACE BIOSCIENCES SUZHOU, published 2021):
Read-outs that look alike come from different tables or passages of the source.

Assays:
[1] = molecular target: T1, Recombinant Human PD-L1/CD274 Protein (hPD-L1-his) (human, UniProt Q9NZQ7 19-238); assay: ELISA on coated hPD-L1-his
T1 construct: range 19-238; ACRO Biosystem PD1-H5229, made in HEK293; also called human PD-L1-his; hPD-L-his

[2] = molecular target: T2, Human PD-L1/CD274 with C-Fc Tag (hPD-L1-Fc) (human, UniProt Q9NZQ7 19-238); assay: blocking ELISA on coated hPD-L1-Fc; blocked ligand: biotinylated hPD-1-N297A
T2 construct: range 19-238; ACRO Biosystem PD1-H5258, made in HEK293; also called human PD-L1-Fc; not shown: Fc fragment of human IgG1 at C-terminus
T2 sequence (Q9NZQ7 19-238 limits assumed): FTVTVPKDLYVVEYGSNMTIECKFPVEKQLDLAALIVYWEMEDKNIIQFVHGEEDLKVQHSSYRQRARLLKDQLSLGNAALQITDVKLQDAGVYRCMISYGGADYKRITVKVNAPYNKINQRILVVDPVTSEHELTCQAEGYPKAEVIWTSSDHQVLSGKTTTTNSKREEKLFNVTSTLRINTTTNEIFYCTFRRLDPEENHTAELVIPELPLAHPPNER
Procedure: High-binding clear polystyrene 96 well plates (Nunc) were coated with 100 μl/well of coating solution consisting of 1 μg/ml hPD-L1-Fc overnight at 4° C. Then the plates were washed once on an automatic plate washer using washing buffer (PBS+0.1% Tween 20 (Sigma)). 200 μl of blocking buffer (PBS+1% BSA+1% normal goat serum+0.05% Tween-20) was added to each well and incubated 2 hours at room temp. […] The plates were then washed 3 times using the method described above. […] After the plates were washed 3 times, 100 μl/well of a solution of 1:5000 diluted HRP conjugated Neutravidin antibody (Pierce) in dilution buffer was then added to each well of the plate. After that the ELISA plates were allowed to incubate for 60 min at RT, then the plates were washed 3 times with 250 μl/well washing buffer. Finally, 100 μl/well of TMB was added to each well and the reaction was terminated using 0.64M H₂SO₄. The plates were read on a Thermo Multiscan FC at 450 nM (see FIG. 18A to 18D).

[3] = molecular target: hPD-L1 (antigen of the Biacore assay) (human, UniProt Q9NZQ7 19-238, limits assumed); assay: SPR (Biacore), antibody captured on anti-human Fc, antigen in flow
hPD-L1 (antigen of the Biacore assay), sequence (Q9NZQ7 19-238 limits assumed): as above
Procedure: A CM5 sensor chip was activated in each flow cell by 7-min injection (10 μl/min) of freshly prepared 1:1 50 mM N-hydroxysuccinimide (NHS): 200 mM 1-ethyl-3-(3-dimethylaminopropyl)-carbodiimide (EDC). Then anti-human Fc antibody (GE Healthcare) in a concentration of 10 μg/ml in 10 mM sodium acetate buffer PH 5.0 was injected onto the activated chip at 10 μl/min (HBS-EP running buffer: 10 mM HEPES, 150 mM NaCl, 3.4 mM EDTA, 0.005% surfactant P20, pH 7.4). The remaining active coupling sites were blocked by 7 min injection of 1M ethanolamine at 10 μl/min. The immobilization level of each flow cell is ˜9000RU. Antibodies were captured in FC2 by anti-human Fe IgG (GE Healthcare) to 200˜300RU. FC1 was used as the reference cell. Antigen was injected at varying concentrations after capture of antibody. The association time for antibody binding antigen is 180s. Surface Regeneration condition is 120s at 10 μl/min in Gly pH1.5. The signals with captured antibody subtracted from those without captured antibody were calculated with Biacore X100 evaluation software ver. 2.0 (Biacore).

[4] = molecular target: T1, Recombinant Human PD-L1/CD274 Protein …; assay: ELISA on coated hPD-L1-his; remark: listed apart in the source
[5] = molecular target: T3, wild type human PD-L1-Fc protein (SEQ ID NO: 107) (human); assay: ELISA on captured PD-L1-Fc, as in Example 18A
T3 construct: Extracellular human PD-L1 (amino acid 19-238) with Fc fragment of human IgG1, expressed in 293T cells and used as culture supernatant; also called WT PD-L1; wild-type PD-L1
T3 sequence (chain, as listed by the source limits assumed): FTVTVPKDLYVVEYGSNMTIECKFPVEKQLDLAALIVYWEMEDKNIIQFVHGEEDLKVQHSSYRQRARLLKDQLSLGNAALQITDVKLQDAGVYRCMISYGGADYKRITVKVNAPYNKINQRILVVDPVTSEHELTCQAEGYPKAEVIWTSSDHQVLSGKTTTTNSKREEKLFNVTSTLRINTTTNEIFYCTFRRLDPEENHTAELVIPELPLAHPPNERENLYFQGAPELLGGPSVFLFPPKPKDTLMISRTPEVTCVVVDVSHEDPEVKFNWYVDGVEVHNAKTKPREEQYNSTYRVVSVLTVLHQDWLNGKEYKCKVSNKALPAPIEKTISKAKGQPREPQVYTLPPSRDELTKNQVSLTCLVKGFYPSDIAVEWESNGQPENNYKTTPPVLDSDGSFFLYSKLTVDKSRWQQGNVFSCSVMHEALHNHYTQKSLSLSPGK

[6] = molecular target: T4, human PD-L1-Fc mutant E58A (human); assay: ELISA on captured PD-L1-Fc, as in Example 18A
T4 construct: Position 58 counts on native human PD-L1 (NP_054862.1); also called E58A mutant
T4 sequence (chain, as listed by the source E58A E58A limits assumed): as the sequence (chain, as listed by the source limits assumed) above, with E40A counted along it

[7] = molecular target: T5, Recombinant Mouse PD-L1/CD274 Protein (mPD-L1-his) (mouse, UniProt Q9EP73 19-238); assay: ELISA, 20 ug/ml antibody on coated mouse PD-L1 (his-tagged per text, mPD-L1-Fc per sheet title)
T5 construct: range 19-238; ACRO Biosystem PD1-M5220; also called mouse PD-L1-his
T5 sequence (Q9EP73 other isoform, or with tags, fused parts or gaps limits assumed): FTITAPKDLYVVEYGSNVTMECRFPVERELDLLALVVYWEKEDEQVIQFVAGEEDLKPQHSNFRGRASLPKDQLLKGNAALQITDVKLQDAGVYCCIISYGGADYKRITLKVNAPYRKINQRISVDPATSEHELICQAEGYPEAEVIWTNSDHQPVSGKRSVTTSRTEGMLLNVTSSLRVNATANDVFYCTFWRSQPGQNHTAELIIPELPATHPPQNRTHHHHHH
Procedure: High-binding clear polystyrene 96 well plates (Nunc) were coated with 100 μl/well of 1 μg/ml mouse PD-L1-his in high pH coating buffer and incubated overnight at 4° C. Then plates were washed once on an automatic plate washer using washing buffer (PBS+0.1% Tween 20 (Sigma)). 200 μl of blocking buffer (PBS+1% BSA+1% normal goat serum+0.05% Tween-20) was added to each well and incubated for 2 hours at room temp. Then add 20 μg/ml purified hybridoma mouse antibodies in dilution buffer (PBS+1% BSA+1% normal goat serum+0.01% Tween-20) and incubate for 1 hour at RT. The plates were then washed 3 times with 250 μl/well washing buffer. 100 μl/well of a solution of HRP conjugated goat anti-mouse Fc antibody (Abcam) in dilution buffer was then added to each well of the plate. After that the ELISA plates were allowed to incubate for 60 min at RT then plates were washed 3 times with 250 μl/well washing buffer. Finally, 100 μl/well of TMB was added to each well and the reaction was terminated using 0.64M H₂SO₄. The plates were read on a Thermo Multiscan FC at 450 nM (see FIG. 6F).

[8] = molecular target: T6, hPD-L2-Fc (human, UniProt Q9BQ51 20-219); assay: ELISA, plate coated with hPD-L2-Fc
T6 construct: Acrobiosystems PD2-H5251; also called human PD-L2 protein; not shown: Fc tag
T6 sequence (looked up): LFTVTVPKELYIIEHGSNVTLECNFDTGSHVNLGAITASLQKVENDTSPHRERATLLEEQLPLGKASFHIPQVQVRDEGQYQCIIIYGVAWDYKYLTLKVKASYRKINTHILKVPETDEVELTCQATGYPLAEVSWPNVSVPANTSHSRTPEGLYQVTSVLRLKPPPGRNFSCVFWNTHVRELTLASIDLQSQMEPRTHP
Procedure: Briefly, high-binding clear polystyrene 96 well plates (Nunc) were coated with 100 μl/well of a 0.5 μg/ml human PD-L1-Fc (Acrobiosystems, Cat #PD1-H5258) or 100 μl/well of a 1 μg/ml hPD-L2-Fc (Acrobiosystems, Cat #PD2-H5251), respectively, in high pH coating buffer (0.16% Na2CO3+0.3% NaHCO₃, pH 9.8) and incubated overnight at 4° C. Then the plates were washed once on an automatic plate washer using washing buffer (PBS+0.1% Tween 20 (Amresco)). 200 μl of blocking buffer (PBS+1% BSA+1% normal goat serum+0.05% Tween-20) was added to each well and incubated for 2 hours at room temp. Then add 100 μl 2 μg/ml purified PD-L1 antibodies with dilution buffer (PBS+1% BSA+1% normal goat serum+0.01% Tween-20) and incubate for 1 hour at RT. The plates were then washed 3 times with washing buffer. 100 μl/well of a solution of HRP conjugated goat anti-mouse IgG antibody (1:20000, Abcam) in dilution buffer was then added to each well of the plate. After that the ELISA plates were allowed to incubate for 60 min at RT then the plates were washed 3 times with 250 μl/well washing buffer. Finally, 100 μl/well of TMB was added to each well for 15 min and the reaction was terminated using 50 ul/well of 0.16 M/L sulfuric acid. The plates were read on a Thermo Multiscan FC at 450 nM (see FIG. 6G).

T1 sequence (Q9NZQ7 other isoform, or with tags, fused parts or gaps limits assumed): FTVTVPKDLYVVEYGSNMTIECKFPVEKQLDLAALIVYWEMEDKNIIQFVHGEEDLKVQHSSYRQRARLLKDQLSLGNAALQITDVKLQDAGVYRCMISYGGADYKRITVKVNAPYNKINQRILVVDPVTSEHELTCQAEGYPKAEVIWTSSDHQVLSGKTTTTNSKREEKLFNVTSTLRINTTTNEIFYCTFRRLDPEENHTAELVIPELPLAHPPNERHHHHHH

Row | Binder | EC50 (read off the curve) [1] | IC50 (read off the curve) [2] | Kd [3] | koff [3] | kon [3] | also measured
1 | 23F11-H6L6 (antibody, V domains shown, produced in 293 cells; light chain constant region not described; also called humanized 23F11 H6L6) VH: QVQLVQSGAEVKKPGASVKVSCKASGYIFTTYWMHWVRQAPGQGLEWIGMIQPNSGGTKYNEKFKKKATLTVDTSISTAYMELSRLRSDDTAVYYCARGAGTVDYFDYWGQGSTLTVSS VL: DIVLTQSPASLAVSVGQRATITCRASESVDIYGNSFMHWYQQKPGQPPKLLIYRASNLESGIPARFSGSGSRTDFTLTINPVEANDTATYYCHQSTEDPYTFGGGTKLEIK | ~0.004 µg/mL | ~0.05 µg/mL | – | – | – | –
2 | 23A11-H5L3 (antibody, V domains shown, produced in 293 cells; also called humanized 23A11 H5L3) VH: LVQLVQSGAEVKKPGASVKVSCKASGYIFTTYWIHWVRQAPGQGLEWIGMIQPNSGGTKYNDQFKNRVTLTVDTSISTAYMELSRLRSDDTAVYYCARGAGTVDYFDYWGQGTTLSISS VL: DIVLTQSPASLAVSVGQRATITCRASESVDIYGNSFMHWYQQKPGQSPKLLIYRASNLESGIPARFSGSGSRTDFTLTINPVEANDTATYYCHQSNDDPYTFGGGTKLETK | – | ~0.05 µg/mL | – | – | – | EC50 (read off the curve) [4]: ~0.002 µg/mL
3 | 4B6-H4L3 (antibody, V domains shown, Humanized; also called humanized 4B6 H4L3) VH: QVQLVQSGAEVKKPGASVKVSCKASGYVFTDYYMNWVRQAPGQGLEWIGDINPNNGGTSYNQKFQGRVTVTVDTSIRTAYMELSRLRSDDTAVYYCVKWGDGPFAYWGQGTLVTVSS VL: DIQMTQSQSSLSASVGDRVTITCQASQNVGAAVAWYQQKPGKAPKLLIYSASNRYTGVPSRFSGSGSGTDFTLTISSMQPEDIATYFCQQYSNYPTFGSGTKLGIK | – | ~0.03 µg/mL | 11.3 nM | 0.00148 s⁻¹ | 132000 M⁻¹ s⁻¹ | –
4 | 4B6-H4L4 (antibody, V domains shown, produced in 293 cells; light chain constant region not described; also called humanized 4B6 H4L4) VH: QVQLVQSGAEVKKPGASVKVSCKASGYVFTDYYMNWVRQAPGQGLEWIGDINPNNGGTSYNQKFQGRVTVTVDTSIRTAYMELSRLRSDDTAVYYCVKWGDGPFAYWGQGTLVTVSS VL: DIQMTQSPSSLSASVGDRVTITCQASQNVGAAVAWYQQKPGKAPKLLIYSASNLYTGVPSRFSGSGSGTDFTLTISSLQPEDIATYFCQQYSNYPTFGSGTKLGIK | – | ~0.04 µg/mL | – | – | – | –
5 | 18G4 (antibody, V domains shown, Mouse monoclonal from hybridoma; also called mouse monoclonal antibody 18G4) VH: QVQLQQPGTALVKPGASVKLSCKASGYTFSSYYIHWVKQRPGQGLEWIGNINPFNGGSIYNEKFKNKASLTVDTSSNTAYMQLSSLTSEDSAVYYCARWHFDYWGQGTSLTVSS VL: DIVMTQSPSSLAVTAGEKVTLKCKSSQSLLWSGNQNNYLSWYQQKQGQPPKLLIYGASIRESWVPDRFTGSGSGTDFTLTIGNVSAEDLAVYYCQHNHGSFLPYTFGGGTRLEIK | – | – | – | – | – | Mean OD450 [5]: 1.45 OD450; OD450 nM of sample-1 [5]: 1.56 OD450; OD450 nM of sample-2 [5]: 1.34 OD450; % of binding of Ab to E58A mutant vs. that to WT PD-L1 [6]: 117%; Mean OD450 [6]: 1.7 OD450; OD450 nM of sample-1 [6]: 1.52 OD450; OD450 nM of sample-2 [6]: 1.88 OD450; binding result [7]: binds
6 | 23A11 (antibody, V domains shown, also called mouse monoclonal antibody 23A11; clone 23A11) VH: LVQLQQPGAELVKPGASVKLSCKASGYIFTTYWIHWVKQRPGQGLEWIGMIQPNSGGTKYNDQFKNRATLTVDKSSTTASMQLSGLTSEDSAVYYCARGAGTVDYFDYWGQGTTLSISS VL: DIVLTQSPASLTVSLGQRATISCRASESVDIYGNSFMHWYQQKPGQSPKLLIYRASNLESGIPARFSGSGSRTDFTLTINPVEADDVATYYCHQSNDDPYTFGGGTKLETK | – | – | – | – | – | binding result [8]: no binding (tested: 2 ug/ml); binding result [7]: no binding (tested: 20 ug/ml)

Second part, led by results:

Row | EC50 (read off the curve) [1] | IC50 (read off the curve) [2] | Kd [3] | koff [3] | kon [3] | Binder | also measured
7 | ~0.002 µg/mL | ~0.04 µg/mL | – | – | – | 23F11-H4L6 (antibody, V domains shown, produced in 293 cells; light chain constant region not described; also called humanized 23F11 H4L6) VH: QVQLVQSGAEVKKPGASVKLSCKASGYIFTTYWMHWVKQRPGQGLEWIGMIQPNSGGTKYNEKFKKKATLTVDKSISTAYMELSRLTSDDTAVYYCARGAGTVDYFDYWGQGSTLTVSS VL: DIVLTQSPASLAVSVGQRATITCRASESVDIYGNSFMHWYQQKPGQPPKLLIYRASNLESGIPARFSGSGSRTDFTLTINPVEANDTATYYCHQSTEDPYTFGGGTKLEIK | –
8 | ~0.002 µg/mL | ~0.04 µg/mL | 103 nM | 0.0448 s⁻¹ | 435000 M⁻¹ s⁻¹ | 23F11-H6L4 (antibody, V domains shown, Humanized; also called humanized 23F11 H6L4) VH: QVQLVQSGAEVKKPGASVKVSCKASGYIFTTYWMHWVRQAPGQGLEWIGMIQPNSGGTKYNEKFKKKATLTVDTSISTAYMELSRLRSDDTAVYYCARGAGTVDYFDYWGQGSTLTVSS VL: DIVLTQSPASLAVSVGQRATITCRASESVDIYGNSFMHWYQQKPGQPPKLLIYRASNLESGIPARFSGSGSRTDFTLTINPVEANDTATYYCQQSTEDPYTFGGGTKLEIK | –
9 | – | – | 11.3 nM | 0.00515 s⁻¹ | 450000 M⁻¹ s⁻¹ | 18G4-chimeric (antibody, V domains shown, Mouse variable regions fused to a human IgG1 constant region) VH: QVQLQQPGTALVKPGASVKLSCKASGYTFSSYYIHWVKQRPGQGLEWIGNINPFNGGSIYNEKFKNKASLTVDTSSNTAYMQLSSLTSEDSAVYYCARWHFDYWGQGTSLTVSS VL: DIVMTQSPSSLAVTAGEKVTLKCKSSQSLLWSGNQNNYLSWYQQKQGQPPKLLIYGASIRESWVPDRFTGSGSGTDFTLTIGNVSAEDLAVYYCQHNHGSFLPYTFGGGTRLEIK | –
